In patent US20260015399A1 (Boehringer Ingelheim, published 2026):
Blank lines part the entries; values can stand above or below the binder they belong to. *1 amine or outer side, *2 acyl side, *3 side chain or, on linkers, in order; H or OH if unused. Side-chain parts run from the residue outwards. The star is where a group is joined. C18 diacid = O=C(O)CCCCCCCCCCCCCCCCC(=O)*; γGlu = O=C(O)[C@H](CCC(=O)[*:2])N[*:1]; Isovaleryl = CC(C)CC(=O)*; Ahx = NCCCCCC(=O)O

Molecular target: T1, human NPY2 receptor (human, UniProt P49146 1-381)
T1 construct: whole, on cells; also called hNPY2-R; hNPY2R
T1 sequence (looked up): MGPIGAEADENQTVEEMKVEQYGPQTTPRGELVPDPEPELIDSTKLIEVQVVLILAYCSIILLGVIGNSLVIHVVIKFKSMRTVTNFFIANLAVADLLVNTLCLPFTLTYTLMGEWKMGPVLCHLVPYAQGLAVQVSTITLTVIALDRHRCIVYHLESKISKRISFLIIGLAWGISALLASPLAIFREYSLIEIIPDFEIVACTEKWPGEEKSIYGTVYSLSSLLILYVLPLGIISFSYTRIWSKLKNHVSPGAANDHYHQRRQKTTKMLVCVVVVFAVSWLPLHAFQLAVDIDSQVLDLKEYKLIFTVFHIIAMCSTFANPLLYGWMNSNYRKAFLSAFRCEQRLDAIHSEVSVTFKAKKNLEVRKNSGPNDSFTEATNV
Assay: RLB: displacement of 125I-PYY(1-36) from hNPY2R membranes

Ki: 3.97 nM
B1: Compound 142 (peptide)
peptide: Isovaleryl-APEK([Ahx-γGlu-C18 diacid])PEEDALPEEIQRYYVSLRHYYNWLTRQRY-NH2
SMILES: CC[C@H](C)[C@H](NC(=O)[C@H](CCC(=O)O)NC(=O)[C@H](CCC(=O)O)NC(=O)[C@@H]1CCCN1C(=O)[C@H](CC(C)C)NC(=O)[C@H](C)NC(=O)[C@H](CC(=O)O)NC(=O)[C@H](CCC(=O)O)NC(=O)[C@H](CCC(=O)O)NC(=O)[C@@H]1CCCN1C(=O)[C@H](CCCCNC(=O)CCCCCNC(=O)CC[C@H](NC(=O)CCCCCCCCCCCCCCCCC(=O)O)C(=O)O)NC(=O)[C@H](CCC(=O)O)NC(=O)[C@@H]1CCCN1C(=O)[C@H](C)NC(=O)CC(C)C)C(=O)N[C@@H](CCC(N)=O)C(=O)N[C@@H](CCCNC(=N)N)C(=O)N[C@@H](Cc1ccc(O)cc1)C(=O)N[C@@H](Cc1ccc(O)cc1)C(=O)N[C@H](C(=O)N[C@@H](CO)C(=O)N[C@@H](CC(C)C)C(=O)N[C@@H](CCCNC(=N)N)C(=O)N[C@@H](Cc1c[nH]cn1)C(=O)N[C@@H](Cc1ccc(O)cc1)C(=O)N[C@@H](Cc1ccc(O)cc1)C(=O)N[C@@H](CC(N)=O)C(=O)N[C@@H](Cc1c[nH]c2ccccc12)C(=O)N[C@@H](CC(C)C)C(=O)N[C@H](C(=O)N[C@@H](CCCNC(=N)N)C(=O)N[C@@H](CCC(N)=O)C(=O)N[C@@H](CCCNC(=N)N)C(=O)N[C@@H](Cc1ccc(O)cc1)C(N)=O)[C@@H](C)O)C(C)C

Ki: 3.42 nM
B2: Compound 143 (peptide)
peptide: Isovaleryl-APEK([Ahx-γGlu-C18 diacid])PEEDSTPEELQRYYVSLRHYYNWLTRQRY-NH2
SMILES: CC(C)CC(=O)N[C@@H](C)C(=O)N1CCC[C@H]1C(=O)N[C@@H](CCC(=O)O)C(=O)N[C@@H](CCCCNC(=O)CCCCCNC(=O)CC[C@H](NC(=O)CCCCCCCCCCCCCCCCC(=O)O)C(=O)O)C(=O)N1CCC[C@H]1C(=O)N[C@@H](CCC(=O)O)C(=O)N[C@@H](CCC(=O)O)C(=O)N[C@@H](CC(=O)O)C(=O)N[C@@H](CO)C(=O)N[C@H](C(=O)N1CCC[C@H]1C(=O)N[C@@H](CCC(=O)O)C(=O)N[C@@H](CCC(=O)O)C(=O)N[C@@H](CC(C)C)C(=O)N[C@@H](CCC(N)=O)C(=O)N[C@@H](CCCNC(=N)N)C(=O)N[C@@H](Cc1ccc(O)cc1)C(=O)N[C@@H](Cc1ccc(O)cc1)C(=O)N[C@H](C(=O)N[C@@H](CO)C(=O)N[C@@H](CC(C)C)C(=O)N[C@@H](CCCNC(=N)N)C(=O)N[C@@H](Cc1c[nH]cn1)C(=O)N[C@@H](Cc1ccc(O)cc1)C(=O)N[C@@H](Cc1ccc(O)cc1)C(=O)N[C@@H](CC(N)=O)C(=O)N[C@@H](Cc1c[nH]c2ccccc12)C(=O)N[C@@H](CC(C)C)C(=O)N[C@H](C(=O)N[C@@H](CCCNC(=N)N)C(=O)N[C@@H](CCC(N)=O)C(=O)N[C@@H](CCCNC(=N)N)C(=O)N[C@@H](Cc1ccc(O)cc1)C(N)=O)[C@@H](C)O)C(C)C)[C@@H](C)O
